No end group written: not given here.
B1: PAK1 peptide (DIQDKPPAPPMRNTST), fluorescein isothiocyanate-conjugated (peptide)
peptide: DIQDKPPAPPMRNTST
modifications: also: fluorescein isothiocyanate-conjugated (position not given here)
B2: Cd3ε peptide (RGQNKERPPPVPNPDY), fluorescein isothiocyanate-conjugated (peptide)
peptide: RGQNKERPPPVPNPDY
modifications: also: fluorescein isothiocyanate-conjugated (position not given here)

Tests used:
Experiment in all cases: FP
[1] = target: NCK2 full-length recombinant protein (mouse, WT, tag-free) (mouse, UniProt O55033 1-380)
NCK2 full-length recombinant protein (mouse, WT, tag-free), sequence (O55033 whole entry): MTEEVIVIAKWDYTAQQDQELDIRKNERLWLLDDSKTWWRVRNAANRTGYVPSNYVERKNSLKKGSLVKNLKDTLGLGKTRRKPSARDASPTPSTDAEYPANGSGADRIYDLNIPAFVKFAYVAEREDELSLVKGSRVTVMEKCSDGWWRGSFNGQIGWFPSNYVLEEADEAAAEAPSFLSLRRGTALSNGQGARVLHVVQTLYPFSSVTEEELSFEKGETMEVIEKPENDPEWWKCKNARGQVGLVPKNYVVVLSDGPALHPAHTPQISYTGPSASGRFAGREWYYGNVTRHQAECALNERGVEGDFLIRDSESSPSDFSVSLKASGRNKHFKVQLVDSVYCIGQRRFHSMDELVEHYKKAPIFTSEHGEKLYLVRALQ

[2] = target: NCK2 2|3|1 full-length recombinant protein (SH3-shuffled, tag-free) (mouse, UniProt O55033 114-170; O55033 60-113; O55033 198-256; O55033 171-197; O55033 2-59; …)
NCK2 2|3|1 full-length recombinant protein (SH3-shuffled, tag-free), sequence (O55033 other isoform, or with tags, fused parts or gaps): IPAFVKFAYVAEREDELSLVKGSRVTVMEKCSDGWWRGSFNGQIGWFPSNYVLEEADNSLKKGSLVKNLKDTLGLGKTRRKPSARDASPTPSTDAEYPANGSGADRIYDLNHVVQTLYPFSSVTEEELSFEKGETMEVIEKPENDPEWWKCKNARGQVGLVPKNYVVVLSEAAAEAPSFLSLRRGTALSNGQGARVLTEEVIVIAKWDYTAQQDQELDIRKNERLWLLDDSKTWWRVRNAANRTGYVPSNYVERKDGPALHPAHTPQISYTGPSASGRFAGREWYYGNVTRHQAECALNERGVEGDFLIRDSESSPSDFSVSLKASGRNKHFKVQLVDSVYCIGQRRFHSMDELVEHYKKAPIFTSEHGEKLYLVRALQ

[3] = target: NCK2 3|1|2 full-length recombinant protein (SH3-shuffled, tag-free) (mouse, UniProt O55033 198-256; O55033 60-113; O55033 2-59; O55033 171-197; O55033 114-170; …)
NCK2 3|1|2 full-length recombinant protein (SH3-shuffled, tag-free), sequence (O55033 other isoform, or with tags, fused parts or gaps): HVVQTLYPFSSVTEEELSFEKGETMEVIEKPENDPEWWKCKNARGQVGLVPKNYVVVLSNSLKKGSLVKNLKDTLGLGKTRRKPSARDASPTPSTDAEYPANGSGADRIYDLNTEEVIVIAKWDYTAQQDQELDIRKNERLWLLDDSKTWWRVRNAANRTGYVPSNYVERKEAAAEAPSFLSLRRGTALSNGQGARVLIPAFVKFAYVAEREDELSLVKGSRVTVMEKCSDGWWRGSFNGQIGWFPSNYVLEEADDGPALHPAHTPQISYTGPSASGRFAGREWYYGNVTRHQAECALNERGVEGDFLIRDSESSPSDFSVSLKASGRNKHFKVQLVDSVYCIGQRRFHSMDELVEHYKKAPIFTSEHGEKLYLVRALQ

[4] = target: NCK2 3|2|1 full-length recombinant protein (SH3-shuffled, tag-free) (mouse, UniProt O55033 198-256; O55033 60-197; O55033 2-59; O55033 257-380)
NCK2 3|2|1 full-length recombinant protein (SH3-shuffled, tag-free), sequence (O55033 other isoform, or with tags, fused parts or gaps): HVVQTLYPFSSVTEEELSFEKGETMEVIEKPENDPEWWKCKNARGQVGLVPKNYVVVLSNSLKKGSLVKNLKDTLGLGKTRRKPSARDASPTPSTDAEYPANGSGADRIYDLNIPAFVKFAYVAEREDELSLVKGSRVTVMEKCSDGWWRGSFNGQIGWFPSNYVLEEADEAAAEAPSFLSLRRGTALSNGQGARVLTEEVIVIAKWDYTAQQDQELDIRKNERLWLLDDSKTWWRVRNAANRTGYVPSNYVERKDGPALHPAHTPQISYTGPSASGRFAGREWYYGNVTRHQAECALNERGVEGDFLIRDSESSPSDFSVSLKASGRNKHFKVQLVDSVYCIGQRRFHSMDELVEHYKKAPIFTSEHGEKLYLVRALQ

[5] = target: NCK2 1|3|2 full-length recombinant protein (SH3-shuffled, tag-free) (mouse, UniProt O55033 1-113; O55033 198-256; O55033 171-197; O55033 114-170; O55033 257-380)
NCK2 1|3|2 full-length recombinant protein (SH3-shuffled, tag-free), sequence (O55033 other isoform, or with tags, fused parts or gaps): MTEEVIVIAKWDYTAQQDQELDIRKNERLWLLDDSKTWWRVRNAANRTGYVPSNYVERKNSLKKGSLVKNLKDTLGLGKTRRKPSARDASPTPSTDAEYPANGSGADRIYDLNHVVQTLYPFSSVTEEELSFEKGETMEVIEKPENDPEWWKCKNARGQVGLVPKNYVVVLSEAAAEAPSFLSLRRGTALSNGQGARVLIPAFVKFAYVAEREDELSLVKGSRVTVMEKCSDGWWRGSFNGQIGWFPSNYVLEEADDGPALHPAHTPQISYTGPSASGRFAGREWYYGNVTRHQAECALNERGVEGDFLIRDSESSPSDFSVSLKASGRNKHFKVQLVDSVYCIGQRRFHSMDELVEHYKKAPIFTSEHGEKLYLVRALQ

[6] = target: NCK2 2|1|3 full-length recombinant protein (SH3-shuffled, tag-free) (mouse, UniProt O55033 114-170; O55033 60-113; O55033 2-59; O55033 171-380)
NCK2 2|1|3 full-length recombinant protein (SH3-shuffled, tag-free), sequence (O55033 other isoform, or with tags, fused parts or gaps): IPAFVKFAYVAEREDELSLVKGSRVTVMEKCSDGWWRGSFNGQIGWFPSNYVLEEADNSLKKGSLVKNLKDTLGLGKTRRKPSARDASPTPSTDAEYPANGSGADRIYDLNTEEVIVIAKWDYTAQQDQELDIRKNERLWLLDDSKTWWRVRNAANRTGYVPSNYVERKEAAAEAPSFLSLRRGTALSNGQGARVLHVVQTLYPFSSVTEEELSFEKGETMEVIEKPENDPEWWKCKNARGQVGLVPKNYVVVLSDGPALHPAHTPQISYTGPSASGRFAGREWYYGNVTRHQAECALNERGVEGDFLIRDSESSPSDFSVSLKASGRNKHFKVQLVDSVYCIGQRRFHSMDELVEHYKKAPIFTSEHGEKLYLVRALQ

| Binder | Kd [1] [µM] | Kd [2] [µM] | Kd [3] [µM] | Kd [4] [µM] | Kd [5] [µM] | Kd [6] [µM] |
| --- | --- | --- | --- | --- | --- | --- |
| B1 | 36 | 21.6 | 54.8 | 31.6 | 77.9 |  |
| B2 | 12.7 | 26.3 | 16.2 |  | 13.5 | 18 |

From article PMC7954794 (2021)
